This note sets out measurements from patent US20240352140A1 (Janssen / Centocor, published 2024).

For one experiment, the target named is T1, recombinant soluble BCMA (Homo sapiens (Human), UniProt Q02223 1-54).
T1 sequence: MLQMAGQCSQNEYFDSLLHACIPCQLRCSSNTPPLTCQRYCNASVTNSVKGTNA
The experiment can be described thus: cell-based or functional assay.

Experiment [1] has as its target T2, cynomolgus monkey BCMA (as used in SPR) (cynomolgus monkey).
T2 construct: also called cyno BCMA
The experiment can be described thus: SPR; column printed 'Binding Affinity to BCMA (nM)', Cyno.

B1: teclistamab (bispecific antibody, human IgG4 S228P, lambda, F234A L235A)
heavy 1: not shown
light 1: SYVLTQPPSVSVAPGQTARITCGGNNIGSKSVHWYQQPPGQAPVVVVYDDSDRPSGIPERFSGSNSGNTATLTISRVEAGDEAVYYCQVWDSSSDHVVFGGGTKLTVLGQPKAAPSVTLFPPSSEELQANKATLVCLISDFYPGAVTVAWKGDSSPVKAGVETTTPSKQSNNKYAASSYLSLTPEQWKSHRSYSCQVTHEGSTVEKTVAPTECS
heavy 2: EVQLVESGGGLVQPGGSLRLSCAASGFTFNTYAMNWVRQAPGKGLEWVARIRSKYNNYATYYAASVKGRFTISRDDSKNSLYLQMNSLKTEDTAVYYCARHGNFGNSYVSWFAYWGQGTLVTVSSASTKGPSVFPLAPCSRSTSESTAALGCLVKDYFPEPVTVSWNSGALTSGVHTFPAVLQSSGLYSLSSVVTVPSSSLGTKTYTCNVDHKPSNTKVDKRVESKYGPPCPPCPAPEAAGGPSVFLFPPKPKDTLMISRTPEVTCVVVDVSQEDPEVQFNWYVDGVEVHNAKTKPREEQFNSTYRVVSVLTVLHQDWLNGKEYKCKVSNKGLPSSIEKTISKAKGQPREPQVYTLPPSQEEMTKNQVSLTCLVKGFYPSDIAVEWESNGQPENNYKTTPPVLDSDGSFLLYSKLTVDKSRWQEGNVFSCSVMHEALHNHYTQKSLSLSLGK
light 2: QTVVTQEPSLTVSPGGTVTLTCRSSTGAVTTSNYANWVQQKPGQAPRGLIGGTNKRAPGTPARFSGSLLGGKAALTLSGVQPEDEAEYYCALWYSNLWVFGGGTKLTVLGQPKAAPSVTLFPPSSEELQANKATLVCLISDFYPGAVTVAWKADSSPVKAGVETTTPSKQSNNKYAASSYLSLTPEQWKSHRSYSCQVTHEGSTVEKTVAPTECS
notes: Humanized IgG4 proline, alanine, alanine (PAA)-based bispecific antibody with one BCMA arm (BCMB69) and one CD3 arm (CD3B219); also called JNJ-64007957; JNJ-957
With B1, the “cytotoxicity assay with spiked recombinant sBCMA (167 nM), reduction in potency” value with recombinant soluble BCMA was 2 fold. In addition, in experiment [1], the dissociation constant Kd fell in the range of 5.36 to 7.27 nM.
